Assay results from patent publication US20150353951A1, “SYNTHETIC GLYPHOSATE-RESISTANT GENE AND USE THEREOF” (priority 2012, published 2015).
Where “and” joins values, the source holds several entries; their conditions need not be identical. Equal entries are not always repeated. Entries after “also recorded” stand apart in the source; their conditions may differ.

Tests used:
G2-aroA protein = assay: Double-antibody sandwich ELISA detection of G2-aroA protein expression in transgenic maize leaves; format: in vivo; settings: for G2-aroA protein concentration: T6 generation transgenic maize, five-leaf stage, leaf fresh weight, single plants 1-4; for expression amount of G2-aroA protein in per gram (fresh weight) of leaf plate: transgenic maize
Procedure: The sample extracting solution: 25 mM of Tris-Cl (pH8.0), 10 mM of KCl, 20 mM of MgCl2.6H2O, 1 mM of DTT, 1 mM of PMSF (added before using).
Taking T6 generation transgenic maize plants (including plants transformed with the mG2-aroA gene and plants transformed with G2-aroA gene) at the same growth state (five-leaf stage), and taking about 1 g (fresh weight) of each function leaf (top-three leaves) plates, then grinding in liquid nitrogen. Transferring into 10 ml of centrifugal tube, into which 3 ml of sample extracting solution was added, and shaking strongly. Then centrifugalizing for 1 h at 4° C. The supernatant was taken as a sample to be detected and stand by service. Since the transformed genes are different, there are two samples to be detected, that is, a sample derived from mG2-aroA transgenic plants (sample to be detected is mG2-aroA) and a sample derived from G2-aroA transgenic plants (sample to be detected is G2-aroA). At the same time, the T6 generation maize plants transformed with pS3300-UG0 blank vector and the non-transgenic maize plants were used as controls.
The weight weighting when the leaf plates were ground in liquid nitrogen into powder samples and added into centrifugal tube containing the extracting solution subtracts that weighting before adding sample into centrifugal tube containing the extracting solution to obtain the fresh weight described above.
(1) Coating: the primary antibody (rabbit antibody) with concentration of 1.5 mg/ml (preparation method, see last part of this specification) against G2-aroA protein was diluted in coating buffer. And then after dilution added into ELIAS plate with a volume ratio of 1:1000 between polyclonal antibody against G2-aroA protein and coating buffer, 100 μL per well, and coating overnight in wet box at 4° C. […]
In another aspect, the sample to be detected prepared in step 1 was diluted with sample buffer in a ratio of 1:5, and then 100 μL of diluted sample was added to each well. […]
(9) Measurement: the OD value was measured at 405 nm.
(10) Plotting the standard curve: the standard solution concentration of G2-aroA protein of various of concentration (ng/mL) was plotted on X axis, and the OD value of G2-aroA protein standard measured in step (9) was plotted on Y axis, then the standard curve was plotted by EXCEL.
(11) The OD value of sample to be detected measured in step (9) was used in standard curve equation obtained in step (10) to calculate the content of G2-aroA protein in sample to be detected.
The content of G2-aroA protein in fresh weight=the content of G2-aroA protein of sample to be detected×the volume of sample to be detected/fresh weight of the sample, unit: μg/g. […]

[1] = tested on: T6 generation transgenic maize plants; assay: Detection of herbicide (Roundup/glyphosate) resistance of transgenic maize plants in field; format: in vivo; settings: for phytotoxicity after Roundup treatment: 800 ml/mu Roundup (41% glyphosate) at 5-6 leaf age; for phytotoxicity response at late stage of plants growth: 800 ml/mu Roundup at 5-6 leaf age
Procedure: 1. the experimental materials: T6 generation transgenic maize plants, including plants transformed with mG2-aroA gene, plants transformed with G2-aroA gene, and plants transformed with pS3300-UG0 blank vector. At the same time, the non-transgenic maize plants were used as a control.
2. experiment design: 5M of row length, 3 row plots, 3 times of repeat, density: 60×35 cm
3. experiment treatment: applying Roundup (containing 41% of glyphosate, recommbinated applying amount in field is 150-250 ml/mu) in an amount of 800 ml/mu.
4. the experiment treatment timing: 5-6 leaf age. The experimental result was observed 7 days later.

Row | Molecule | G2-aroA protein concentration (G2-aroA protein) | expression amount of G2-aroA protein in per gram (fresh weight) of leaf plate (G2-aroA protein) | phytotoxicity after Roundup treatment [1] | phytotoxicity response at late stage of plants growth [1]
1 | G2-aroA: initial prokaryote glyphosate-resistant gene, SEQ ID NO. 1; tested as T6 transgenic maize (nucleic acid) DNA: ATGGCGTGTTTGCCTGATGATTCGGGTCCGCATGTCGGCCACTCCACGCCACCTCGCCTTGACCAGGAGCCTTGTACCTTGAGTTCGCAGAAAACCGTGACCGTTACACCGCCCAACTTCCCCCTCACTGGCAAGGTCGCGCCCCCCGGCTCCAAATCCATTACCAACCGTGCGCTGTTGCTGGCGGCATTGGCCAAGGGCACCAGCCGTTTGAGCGGTGCGCTCAAAAGCGATGACACGCGCCACATGTCGGTCGCCCTGCGGCAGATGGGCGTCACCATCGACGAGCCGGACGACACCACCTTTGTGGTCACCAGCCAAGGCTCGCTGCAATTGCCGGCCCAGCCGTTGTTCCTCGGCAACGCTGGCACCGCCATGCGCTTTCTCACGGCTGCCGTGGCCACCGTGCAAGGCACCGTGGTACTGGACGGCGACGAGTACATGCAAAAACGCCCGATTGGCCCGCTGCTGGCTACCCTGGGCCAGAACGGCATCCAGGTCGACAGCCCCACCGGTTGCCCACCGGTCACCGTGCACGGCATGGGCAAGGTCCAGGCCAAGCGTTTCGAGATTGATGGTGGTTTGTCCAGCCAGTACGTATCGGCCCTGCTGATGCTCGCGGCGTGCGGCGAAGCGCCGATTGAAGTGGCGCTGACCGGCAAGGATATCGGTGCCCGTGGCTACGTGGACCTGACCCTCGACTGCATGCGTGCCTTCGGGGCCCAGGTGGACGCCGTGGACGACACCACCTGGCGCGTCGCCCCCACCGGCTATACCGCCCATGATTACCTGATCGAACCCGATGCGTCCGCCGCCACGTATTTGTGGGCCGCAGAAGTGCTGACCGGTGGGCGTATCGACATCGGCGTAGCCGCGCAGGACTTCACCCAGCCCGACGCCAAGGCCCAGGCCGTGATTGCGCAGTTCCCGAACATGCAAGCCACGGTGGTAGGCTCGCAAATGCAGGATGCGATCCCGACCCTGGCGGTGCTCGCCGCGTTCAACAACACCCCGGTGCGTTTCACTGAACTGGCGAACCTGCGCGTCAAGGAATGTGACCGCGTGCAGGCGCTGCACGATGGCCTCAACGAAATTCGCCCGGGCCTGGCGACCATCGAGGGCGATGACCTGCTGGTCGCCAGCGACCCGGCCCTGGCAGGCACCGCCTGCACCGCACTGATCGACACCCACGCCGACCATCGCATCGCCATGTGCTTTGCCCTGGCCGGGCTTAAAGTCTCGGGCATTCGCATTCAAGACCCGGACTGCGTGGCCAAGACCTACCCTGACTACTGGAAAGCCCTGGCCAGCCTGGGCGTTCACCTAAACGACTGA | 10.671 µg/g and 20.227 µg/g and 14.237 µg/g and 15.096 µg/g | 3.735 µg | very serious phytotoxicity, and all plants showed yellowing, abnormalities; also recorded: phytotoxicity was very serious, plants all show yellowing, abnormalities | most of plants showed that the tassels did not differentiate, and ears did not silk or plants were short
2 | mG2-aroA: codons optimized glyphosate-resistant gene, SEQ ID NO. 2, encoding G2-aroA protein; tested as T6 transgenic maize (nucleic acid) DNA: ATGGCGTGCCTCCCTGACGATTCTGGTCCGCATGTCGGACACTCCACTCCACCTCGCCTGGACCAGGAGCCCTGTACCTTGTCGTCCCAGAAGACGGTTACGGTGACGCCACCCAACTTCCCGTTGACTGGGAAGGTCGCTCCACCTGGCTCCAAGTCTATCACCAACCGTGCACTGTTGCTGGCTGCGTTGGCCAAAGGGACCAGTCGGTTGAGCGGTGCGCTCAAGTCGGATGACACTCGCCACATGTCGGTGGCTCTGAGGCAGATGGGTGTCACGATCGACGAACCGGATGACACGACCTTCGTGGTCACGAGCCAAGGCAGCCTCCAGCTGCCAGCCCAACCGTTGTTCCTCGGCAATGCTGGCACCGCTATGCGCTTCCTCACGGCTGCGGTGGCCACCGTCCAAGGCACGGTCGTTCTGGATGGCGATGAGTACATGCAGAAGCGTCCCATCGGACCCTTGCTGGCGACGCTTGGACAGAACGGCATCCAAGTGGATTCTCCCACCGGTTGCCCACCCGTCACCGTGCACGGCATGGGCAAGGTCCAAGCGAAGCGGTTCGAGATCGACGGTGGGCTCTCCTCCCAGTACGTCTCAGCCCTGCTCATGCTCGCTGCGTGTGGCGAGGCACCGATCGAGGTTGCGCTCACAGGCAAGGACATCGGTGCCAGAGGGTACGTGGACCTGACCCTCGACTGCATGAGAGCCTTTGGAGCACAGGTTGACGCAGTGGACGACACGACCTGGAGGGTCGCTCCCACAGGGTACACCGCTCATGACTATCTCATCGAACCCGACGCCAGCGCTGCGACGTACTTGTGGGCAGCCGAGGTCCTGACCGGTGGCAGGATTGATATTGGCGTTGCTGCGCAGGACTTCACCCAACCGGACGCCAAGGCTCAAGCCGTGATTGCGCAGTTCCCTAACATGCAAGCCACCGTGGTTGGCTCCCAGATGCAGGACGCGATCCCGACCCTGGCTGTCCTCGCAGCCTTCAACAATACTCCCGTGCGCTTCACTGAGCTTGCCAACCTTAGGGTCAAGGAGTGCGATCGCGTGCAAGCCCTGCACGATGGGCTCAACGAGATCAGGCCAGGCCTCGCCACCATCGAGGGAGACGACCTGCTCGTGGCCAGCGACCCAGCGCTTGCAGGGACAGCCTGCACAGCCCTGATCGACACCCACGCTGACCATCGCATCGCGATGTGCTTTGCCCTGGCTGGCCTTAAGGTCTCAGGCATTCGCATTCAGGACCCTGACTGCGTGGCCAAGACCTACCCTGACTACTGGAAGGCTCTTGCCAGCCTTGGCGTTCACCTCAACGACTGATGA | 3.304 µg/g and 2.977 µg/g and 4.321 µg/g and 4.339 µg/g | up to 15.057 μg | phytotoxicity was not obvious, they grew normally | no phytotoxicity response
